Data as given in US5858973, “Transcription factor and uses therefor” (The General Hospital Corporation).

Columns and labels:
[1] = biological target: T1, IDX-1 (GST fusion, full length) (Rattus norvegicus, UniProt P52947 SEQ:1-283); assay: EMSA; several complexes; details: tags: N-terminal GST (pGEX-KG), bacterially expressed; label: 32P
Procedure: (§1) Electrophoretic mobility shift assays (EMSA) were performed as described (Ron et al., 1990, Mol. and Cell. Biol. 10:1023) using bacterially-expressed IDX-1 or nuclear extracts prepared from RIN1027-B2 cells (Dignam et al., 1983, supra). PCR was used to generate a bacterial expression vector encoding the full length IDX-1 protein fused to glutathione S-transferase(GST). An oligonucleotide amplimer was designed to create an NcoI site at the initiation methionine of the IDX-1 cDNA. This primer was used in conjunction with the T3 primer to amplify the IDX-1 cDNA insert from an IDX-1/pBS(KS) subclone. The PCR product was digested with NcoI and XhoI, gel-purified, and ligated into NcoI/XhoI-cut pGEX-KG (Pharmacia Biotech Inc., Piscataway, N.J.). Expression and purification of the GST/IDX-1 fusion protein was performed as described (Smith and Johnson, 1988, supra).
(§2) Nuclear extracts form RIN1027-B2 cells or purified bacterially-expressed GST/IDX-1 were incubated with the following ^32P-labelled double-stranded oligonucleotide probes: 1) INS1-FLAT, the Far-linked AT-rich element of the rat insulin 1 gene (German et al., 1992, Mol. Cell. Biol. 12:1777) (5'-[…]-3'); 2) SMS-TAAT1, a FLAT-like element (5'-[…] […]

[2] = biological target: IDX-1 (IDX-1/pBJ5 expressed in NIH-3T3) (Rattus norvegicus, UniProt P52947 SEQ:1-283); assay: cell_activity; CAT reporter in NIH-3T3
Source text: Several different reporter constructs were used in cotransfection experiments with IDX-1/pBJ5 expression vector. The SMS900CAT plasmid consists of nucleotides −900 to +54, relative to the transcription start site, of the rat somatostatin gene linked 5' to the coding sequence of the bacterial chloramphenicol acetyl transferase (CAT) gene (Powers et al., 1989, supra). The plasmid SMS900(Δ−250/−120)CAT is identical to SMS900CAT with the exception of an internal deletion between nucleotides −250 and −120. This deletion removes a putative transcriptional suppressor region located between nucleotides −237 and −189 of the rat somatostatin gene (Vallejo et al., in preparation). SMS(−900/−250) TKCAT contains −900 to −250 of the rat somatostatin gene linked 5' to the herpes simplex thymidine kinase promoter in the CAT reporter plasmid PUTKAT (Prost and Moore, 1986, Gene 45:107). The plasmids SMS900CAT(TAAT1mut), SMS900CAT(TAAT2mut) and SMS900CAT(UE-Bmut) were created using oligonucleotide-directed mutagenesis (Kunkel, 1985, Proc. Natl. Acad. Sci. USA 82:488) to introduce clustered nucleotide substitutions in the IDX-1 binding sites located at −450, −290, and —90, respectively, within the SMS900CAT reporter. For SMS-TAAT1, the central 5'-ATTAAT-3' was converted to 5'-GCCGGC-3'. […]

[3] = biological target: T1, IDX-1 (GST fusion, full length); assay: EMSA; appears weaker than SMS-TAAT1; details: tags: N-terminal GST (pGEX-KG), bacterially expressed; label: 32P
Procedure: as §1, §2

[4] = biological target: T1, IDX-1 (GST fusion, full length); assay: EMSA; details: tags: N-terminal GST (pGEX-KG), bacterially expressed; label: 32P
Procedure: as §1, §2

[5] = biological target: T1, IDX-1 (GST fusion, full length); assay: EMSA; data not shown; protein preparation not stated; details: tags: N-terminal GST (pGEX-KG), bacterially expressed

T1 sequence (P52947 other isoform, or with tags, fused parts or gaps): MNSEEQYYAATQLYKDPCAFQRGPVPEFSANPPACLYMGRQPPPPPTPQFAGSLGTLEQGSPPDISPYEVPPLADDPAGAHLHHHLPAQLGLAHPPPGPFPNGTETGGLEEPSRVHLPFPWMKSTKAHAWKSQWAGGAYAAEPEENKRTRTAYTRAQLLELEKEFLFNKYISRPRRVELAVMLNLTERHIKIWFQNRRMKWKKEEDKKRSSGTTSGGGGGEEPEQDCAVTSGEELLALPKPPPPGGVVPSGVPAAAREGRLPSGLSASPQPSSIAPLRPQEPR
Sequence of IDX-1 (IDX-1/pBJ5 expressed in NIH-3T3) (P52947 other isoform, or with tags, fused parts or gaps): as above

B1: INS1-FLAT (dsDNA)
DNA 1: GATCCTTGTTAATCTAATTACCCTAGGTCTAA
DNA 2: TTAGACCTAGGGTAATTAGATTAACAAGGATC
binding result [1]: binds

B2: 6x SMS-TAAT1 in SMS65CAT (dsDNA)
DNA 1: GATCCCTGATTGCATATTAATTCTCAGATA
DNA 2: TATCTGAGAATTAATATGCAATCAGGGATC
activity [2]: 34 fold

B3: SMS-TAAT2 (dsDNA)
DNA 1: GATCCGATCTCAGTAATTAATCATGCACCA
DNA 2: TGGTGCATGATTAATTACTGAGATCGGATC
binding result [3]: binds

B4: SMS-UE-B (dsDNA)
DNA 1: GATCCGCGAGGCTAATGGTGCGTAAAAGCACTGGTGA
DNA 2: TCACCAGTGCTTTTACGCACCATTAGCCTCGCGGATC
binding result [4]: binds

B5: SMS-PS (dsDNA)
DNA 1: GATCCAGGCAAGATTATTTGGTCA
DNA 2: TGACCAAATAATCTTGCCTGGATC
binding result [4]: no binding

B6: SMS-TAAT1 mutant (dsDNA)
DNA 1: GATCCCTGATTGCATGCCGGCTCTCAGATA
DNA 2: TATCTGAGAGCCGGCATGCAATCAGGGATC
modifications: [16-21]
binding result [5]: no binding

B7: SMS-TAAT2 mutant (dsDNA)
DNA 1: GATCCGATCTCAGCGGCCGATCATGCACCA
DNA 2: TGGTGCATGATCGGCCGCTGAGATCGGATC
modifications: [14-19]
binding result [5]: no binding

B8: SMS-UE-B mutant (dsDNA)
DNA 1: GATCCGCGAGGTCGGCAGTGCGTAAAAGCACTGGTGA
DNA 2: TCACCAGTGCTTTTACGCACTGCCGACCTCGCGGATC
modifications: [12-17]
binding result [5]: no binding
